Laboratory results: paper PMC9482650, “Quantitative fragmentomics allow affinity mapping of interactomes” (Nature Communications, 2022)

T1: NHERF3_3, Q5T2W1
T1 sequence (Q5T2W1 238-333, limits assumed, looked up): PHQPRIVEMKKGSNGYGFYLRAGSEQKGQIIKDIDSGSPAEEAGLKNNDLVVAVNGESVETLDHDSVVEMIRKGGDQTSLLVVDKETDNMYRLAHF

T2: LRRC7, Q96NW7
T2 sequence (Q96NW7 1440-1537, limits assumed, looked up): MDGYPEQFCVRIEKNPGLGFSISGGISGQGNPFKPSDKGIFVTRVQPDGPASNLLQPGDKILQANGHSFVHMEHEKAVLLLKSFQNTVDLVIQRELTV

T3: CARD11, Q9BXL7
T3 sequence (Q9BXL7 662-765, limits assumed, looked up): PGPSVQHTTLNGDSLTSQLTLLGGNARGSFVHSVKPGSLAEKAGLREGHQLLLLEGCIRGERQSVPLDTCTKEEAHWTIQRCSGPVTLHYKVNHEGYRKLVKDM

T4: PARD3B_1, Q8TEW8
T4 sequence (Q8TEW8 196-299, limits assumed, looked up): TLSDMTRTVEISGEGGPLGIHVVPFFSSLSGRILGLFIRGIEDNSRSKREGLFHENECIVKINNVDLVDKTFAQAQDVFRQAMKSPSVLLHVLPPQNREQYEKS

T5: MPP6, Q9NZW5
T5 sequence (Q9NZW5 125-219, limits assumed, looked up): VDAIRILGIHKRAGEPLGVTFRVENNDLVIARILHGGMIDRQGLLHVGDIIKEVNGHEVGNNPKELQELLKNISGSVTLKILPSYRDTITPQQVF

T6: SNTG2, Q9NY99
T6 sequence (Q9NY99 68-166, limits assumed, looked up): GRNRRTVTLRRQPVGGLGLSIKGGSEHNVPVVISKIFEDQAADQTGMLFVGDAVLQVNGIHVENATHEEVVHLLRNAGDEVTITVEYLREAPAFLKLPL

T7: NHERF3_1, Q5T2W1
T7 sequence (Q5T2W1 4-100, limits assumed, looked up): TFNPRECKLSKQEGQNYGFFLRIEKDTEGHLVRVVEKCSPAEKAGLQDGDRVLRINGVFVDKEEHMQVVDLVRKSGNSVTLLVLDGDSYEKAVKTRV

T8: SNTG1, Q9NSN8
T8 sequence (Q9NSN8 52-150, limits assumed, looked up): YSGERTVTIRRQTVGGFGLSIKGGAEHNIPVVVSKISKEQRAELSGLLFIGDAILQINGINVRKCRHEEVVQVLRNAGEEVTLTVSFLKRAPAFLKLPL

T9: APBA1_2, Q02410
T9 sequence (Q02410 742-832, limits assumed, looked up): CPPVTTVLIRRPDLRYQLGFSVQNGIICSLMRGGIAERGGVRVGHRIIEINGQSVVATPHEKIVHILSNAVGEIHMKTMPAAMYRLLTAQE


biological target: T1, NHERF3_3, Q5T2W1; assay: holdup assay; design: key: below the threshold = too weak to quantify, mostly under pKd 3.1 to 4; settings: plain residues with an end cap or a label only (N-terminal biotin on a linker: ado-ado)

Row | pKd | Binder
1 | below the threshold | QRYPGNQTTC [CCL24, O00175]
2 | below the threshold | HYPASPDSWV [CTNND2, Q9UQB3]

biological target: T2, LRRC7, Q96NW7; assay: holdup assay; design: key: below the threshold = too weak to quantify, mostly under pKd 3.1 to 4; settings: plain residues with an end cap or a label only (N-terminal biotin on a linker: ado-ado)

Row | pKd | Binder
3 | below the threshold | QRYPGNQTTC [CCL24, O00175]
4 | 4.97 | HYPASPDSWV [CTNND2, Q9UQB3]

biological target: T3, CARD11, Q9BXL7; assay: holdup assay; design: key: below the threshold = too weak to quantify, mostly under pKd 3.1 to 4; settings: plain residues with an end cap or a label only (N-terminal biotin on a linker: ado-ado)

Row | pKd | Binder
5 | below the threshold | QRYPGNQTTC [CCL24, O00175]
6 | below the threshold | HYPASPDSWV [CTNND2, Q9UQB3]

biological target: T4, PARD3B_1, Q8TEW8; assay: holdup assay; design: key: below the threshold = too weak to quantify, mostly under pKd 3.1 to 4; settings: plain residues with an end cap or a label only (N-terminal biotin on a linker: ado-ado)

Row | pKd | Binder
7 | below the threshold | QRYPGNQTTC [CCL24, O00175]
8 | 3.52 | HYPASPDSWV [CTNND2, Q9UQB3]

biological target: DLG2_2, Q15700; assay: holdup assay; design: key: below the threshold = too weak to quantify, mostly under pKd 3.1 to 4; settings: plain residues with an end cap or a label only (N-terminal biotin on a linker: ado-ado)
Sequence (Q15700 189-283): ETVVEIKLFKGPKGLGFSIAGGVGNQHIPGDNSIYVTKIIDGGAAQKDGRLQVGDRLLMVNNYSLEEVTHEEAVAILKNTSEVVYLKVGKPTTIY

Row | pKd | Binder
9 | 3.51 | QRYPGNQTTC [CCL24, O00175]
10 | 4.09 | HYPASPDSWV [CTNND2, Q9UQB3]

biological target: T5, MPP6, Q9NZW5; assay: holdup assay; design: key: below the threshold = too weak to quantify, mostly under pKd 3.1 to 4; settings: plain residues with an end cap or a label only (N-terminal biotin on a linker: ado-ado)

Row | pKd | Binder
11 | below the threshold | QRYPGNQTTC [CCL24, O00175]
12 | below the threshold | HYPASPDSWV [CTNND2, Q9UQB3]

biological target: GRASP, Q7Z6J2; assay: holdup assay; design: key: below the threshold = too weak to quantify, mostly under pKd 3.1 to 4; settings: plain residues with an end cap or a label only (N-terminal biotin on a linker: ado-ado)
Sequence (Q7Z6J2 96-193): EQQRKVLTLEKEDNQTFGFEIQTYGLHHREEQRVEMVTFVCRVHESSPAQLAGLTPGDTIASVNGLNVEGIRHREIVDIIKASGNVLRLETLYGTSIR

Row | pKd | Binder
13 | 3.48 | QRYPGNQTTC [CCL24, O00175]
14 | 3.76 | HYPASPDSWV [CTNND2, Q9UQB3]

biological target: T6, SNTG2, Q9NY99; assay: holdup assay; design: key: below the threshold = too weak to quantify, mostly under pKd 3.1 to 4; settings: plain residues with an end cap or a label only (N-terminal biotin on a linker: ado-ado)

Row | pKd | Binder
15 | below the threshold | QRYPGNQTTC [CCL24, O00175]
16 | 3.72 | HYPASPDSWV [CTNND2, Q9UQB3]

biological target: DLG5_1, Q8TDM6; assay: holdup assay; design: key: below the threshold = too weak to quantify, mostly under pKd 3.1 to 4; settings: plain residues with an end cap or a label only (N-terminal biotin on a linker: ado-ado)
Sequence (Q8TDM6 617-713): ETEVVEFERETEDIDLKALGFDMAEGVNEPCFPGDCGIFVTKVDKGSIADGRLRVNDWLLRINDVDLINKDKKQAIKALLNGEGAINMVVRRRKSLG

Row | pKd | Binder
17 | below the threshold | QRYPGNQTTC [CCL24, O00175]
18 | below the threshold | HYPASPDSWV [CTNND2, Q9UQB3]

biological target: GRIP2_6, Q9C0E4; assay: holdup assay; design: key: below the threshold = too weak to quantify, mostly under pKd 3.1 to 4; settings: plain residues with an end cap or a label only (N-terminal biotin on a linker: ado-ado)
Sequence (Q9C0E4 648-740): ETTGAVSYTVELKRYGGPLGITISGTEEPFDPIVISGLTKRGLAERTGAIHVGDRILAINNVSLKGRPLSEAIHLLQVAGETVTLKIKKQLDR

Row | pKd | Binder
19 | below the threshold | QRYPGNQTTC [CCL24, O00175]
20 | below the threshold | HYPASPDSWV [CTNND2, Q9UQB3]

biological target: MAGI2_3, Q86UL8; assay: holdup assay; design: key: below the threshold = too weak to quantify, mostly under pKd 3.1 to 4; settings: plain residues with an end cap or a label only (N-terminal biotin on a linker: ado-ado)
Sequence (Q86UL8 600-682): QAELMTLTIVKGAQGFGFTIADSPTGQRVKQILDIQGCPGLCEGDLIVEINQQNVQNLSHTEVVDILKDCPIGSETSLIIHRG

Row | pKd | Binder
21 | below the threshold | QRYPGNQTTC [CCL24, O00175]
22 | 3.58 | HYPASPDSWV [CTNND2, Q9UQB3]

biological target: IL16_1, Q14005; assay: holdup assay; design: key: below the threshold = too weak to quantify, mostly under pKd 3.1 to 4; settings: plain residues with an end cap or a label only (N-terminal biotin on a linker: ado-ado)
Sequence (Q14005 210-306): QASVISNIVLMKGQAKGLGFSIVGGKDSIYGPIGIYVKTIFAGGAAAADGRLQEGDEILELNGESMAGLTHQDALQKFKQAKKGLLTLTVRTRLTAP

Row | pKd | Binder
23 | below the threshold | QRYPGNQTTC [CCL24, O00175]
24 | 4.24 | HYPASPDSWV [CTNND2, Q9UQB3]

biological target: T7, NHERF3_1, Q5T2W1; assay: holdup assay; design: key: below the threshold = too weak to quantify, mostly under pKd 3.1 to 4; settings: plain residues with an end cap or a label only (N-terminal biotin on a linker: ado-ado)

Row | pKd | Binder
25 | below the threshold | QRYPGNQTTC [CCL24, O00175]
26 | below the threshold | HYPASPDSWV [CTNND2, Q9UQB3]

biological target: PTPN3, P26045; assay: holdup assay; design: key: below the threshold = too weak to quantify, mostly under pKd 3.1 to 4; settings: plain residues with an end cap or a label only (N-terminal biotin on a linker: ado-ado)
Sequence (P26045 505-587): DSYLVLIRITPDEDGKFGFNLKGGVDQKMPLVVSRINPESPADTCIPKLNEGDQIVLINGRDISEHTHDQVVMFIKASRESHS

Row | pKd | Binder
27 | 3.66 | QRYPGNQTTC [CCL24, O00175]
28 | 5.07 | HYPASPDSWV [CTNND2, Q9UQB3]

biological target: T8, SNTG1, Q9NSN8; assay: holdup assay; design: key: below the threshold = too weak to quantify, mostly under pKd 3.1 to 4; settings: plain residues with an end cap or a label only (N-terminal biotin on a linker: ado-ado)

Row | pKd | Binder
29 | below the threshold | QRYPGNQTTC [CCL24, O00175]
30 | 4.64 | HYPASPDSWV [CTNND2, Q9UQB3]

biological target: SCRIB_1, Q14160; assay: holdup assay; design: key: below the threshold = too weak to quantify, mostly under pKd 3.1 to 4; settings: plain residues with an end cap or a label only (N-terminal biotin on a linker: ado-ado)
Sequence (Q14160 718-814): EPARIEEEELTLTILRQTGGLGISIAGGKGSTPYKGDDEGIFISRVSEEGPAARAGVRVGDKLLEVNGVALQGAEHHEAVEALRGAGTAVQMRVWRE

Row | pKd | Binder
31 | 3.92 | QRYPGNQTTC [CCL24, O00175]
32 | 4.06 | HYPASPDSWV [CTNND2, Q9UQB3]

biological target: SCRIB_3, Q14160; assay: holdup assay; design: key: below the threshold = too weak to quantify, mostly under pKd 3.1 to 4; settings: plain residues with an end cap or a label only (N-terminal biotin on a linker: ado-ado)
Sequence (Q14160 999-1103): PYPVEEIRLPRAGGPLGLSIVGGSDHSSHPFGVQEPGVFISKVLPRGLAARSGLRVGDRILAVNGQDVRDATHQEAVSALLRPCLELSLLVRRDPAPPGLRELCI

Row | pKd | Binder
33 | 3.64 | QRYPGNQTTC [CCL24, O00175]
34 | 4.4 | HYPASPDSWV [CTNND2, Q9UQB3]

biological target: PICK1, Q9NRD5; assay: holdup assay; design: key: below the threshold = too weak to quantify, mostly under pKd 3.1 to 4; settings: plain residues with an end cap or a label only (N-terminal biotin on a linker: ado-ado)
Sequence (Q9NRD5 17-115): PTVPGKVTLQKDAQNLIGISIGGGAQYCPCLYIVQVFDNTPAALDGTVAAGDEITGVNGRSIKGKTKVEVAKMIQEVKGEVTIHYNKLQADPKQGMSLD

Row | pKd | Binder
35 | below the threshold | QRYPGNQTTC [CCL24, O00175]
36 | 4.17 | HYPASPDSWV [CTNND2, Q9UQB3]

biological target: AHNAK1, Q09666; assay: holdup assay; design: key: below the threshold = too weak to quantify, mostly under pKd 3.1 to 4; settings: plain residues with an end cap or a label only (N-terminal biotin on a linker: ado-ado)
Sequence (Q09666 4-100): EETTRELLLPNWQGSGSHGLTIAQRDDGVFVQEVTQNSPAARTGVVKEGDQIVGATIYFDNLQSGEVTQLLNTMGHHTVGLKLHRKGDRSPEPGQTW

Row | pKd | Binder
37 | below the threshold | QRYPGNQTTC [CCL24, O00175]
38 | below the threshold | HYPASPDSWV [CTNND2, Q9UQB3]

biological target: IL16_4, Q14005; assay: holdup assay; design: key: below the threshold = too weak to quantify, mostly under pKd 3.1 to 4; settings: plain residues with an end cap or a label only (N-terminal biotin on a linker: ado-ado)
Sequence (Q14005 1229-1329): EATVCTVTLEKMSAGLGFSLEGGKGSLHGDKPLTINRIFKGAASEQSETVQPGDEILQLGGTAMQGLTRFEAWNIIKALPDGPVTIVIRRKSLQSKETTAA

Row | pKd | Binder
39 | below the threshold | QRYPGNQTTC [CCL24, O00175]
40 | 3.67 | HYPASPDSWV [CTNND2, Q9UQB3]

biological target: LDB3, O75112; assay: holdup assay; design: key: below the threshold = too weak to quantify, mostly under pKd 3.1 to 4; settings: plain residues with an end cap or a label only (N-terminal biotin on a linker: ado-ado)
Sequence (O75112 1-94): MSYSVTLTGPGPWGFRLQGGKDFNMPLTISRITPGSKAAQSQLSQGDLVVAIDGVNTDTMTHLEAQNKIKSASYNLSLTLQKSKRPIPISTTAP

Row | pKd | Binder
41 | below the threshold | QRYPGNQTTC [CCL24, O00175]
42 | 3.74 | HYPASPDSWV [CTNND2, Q9UQB3]

biological target: TJP1_3, Q07157; assay: holdup assay; design: key: below the threshold = too weak to quantify, mostly under pKd 3.1 to 4; settings: plain residues with an end cap or a label only (N-terminal biotin on a linker: ado-ado)
Sequence (Q07157 416-512): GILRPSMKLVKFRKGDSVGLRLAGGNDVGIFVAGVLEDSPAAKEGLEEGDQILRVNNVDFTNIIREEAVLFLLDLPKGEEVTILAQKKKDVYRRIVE

Row | pKd | Binder
43 | below the threshold | QRYPGNQTTC [CCL24, O00175]
44 | 3.81 | HYPASPDSWV [CTNND2, Q9UQB3]

biological target: T9, APBA1_2, Q02410; assay: holdup assay; design: key: below the threshold = too weak to quantify, mostly under pKd 3.1 to 4; settings: plain residues with an end cap or a label only (N-terminal biotin on a linker: ado-ado)

Row | pKd | Binder
45 | below the threshold | QRYPGNQTTC [CCL24, O00175]
46 | 4.5 | HYPASPDSWV [CTNND2, Q9UQB3]

biological target: LNX1_1, Q8TBB1; assay: holdup assay; design: key: below the threshold = too weak to quantify, mostly under pKd 3.1 to 4; settings: plain residues with an end cap or a label only (N-terminal biotin on a linker: ado-ado)
Sequence (Q8TBB1 261-371): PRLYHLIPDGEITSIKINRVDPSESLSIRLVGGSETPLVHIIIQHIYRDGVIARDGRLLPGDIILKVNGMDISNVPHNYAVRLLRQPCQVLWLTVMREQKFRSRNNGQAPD

Row | pKd | Binder
47 | 3.78 | QRYPGNQTTC [CCL24, O00175]
48 | 4.12 | HYPASPDSWV [CTNND2, Q9UQB3]

biological target: LIMK2, P53671; assay: holdup assay; design: key: below the threshold = too weak to quantify, mostly under pKd 3.1 to 4; settings: plain residues with an end cap or a label only (N-terminal biotin on a linker: ado-ado)
Sequence (P53671 143-248): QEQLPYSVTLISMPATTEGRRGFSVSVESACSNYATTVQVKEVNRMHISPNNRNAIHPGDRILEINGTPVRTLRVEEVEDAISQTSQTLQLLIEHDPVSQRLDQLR

Row | pKd | Binder
49 | below the threshold | QRYPGNQTTC [CCL24, O00175]
50 | below the threshold | HYPASPDSWV [CTNND2, Q9UQB3]

biological target: Inadl_3, Q8NI35; assay: holdup assay; design: key: below the threshold = too weak to quantify, mostly under pKd 3.1 to 4; settings: plain residues with an end cap or a label only (N-terminal biotin on a linker: ado-ado)
Sequence (Q8NI35 359-469): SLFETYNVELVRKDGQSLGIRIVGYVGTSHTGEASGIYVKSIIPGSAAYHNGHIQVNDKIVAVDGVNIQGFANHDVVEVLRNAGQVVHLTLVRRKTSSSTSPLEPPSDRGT

Row | pKd | Binder
51 | below the threshold | QRYPGNQTTC [CCL24, O00175]
52 | below the threshold | HYPASPDSWV [CTNND2, Q9UQB3]

biological target: DLG1_3, Q12959; assay: holdup assay; design: key: below the threshold = too weak to quantify, mostly under pKd 3.1 to 4; settings: plain residues with an end cap or a label only (N-terminal biotin on a linker: ado-ado)
Sequence (Q12959 457-571): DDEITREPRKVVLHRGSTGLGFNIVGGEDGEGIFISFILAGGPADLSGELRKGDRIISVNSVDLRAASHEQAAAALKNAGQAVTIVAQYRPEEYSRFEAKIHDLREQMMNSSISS

Row | pKd | Binder
53 | 3.76 | QRYPGNQTTC [CCL24, O00175]
54 | below the threshold | HYPASPDSWV [CTNND2, Q9UQB3]

biological target: NHERF4_4, Q86UT5; assay: holdup assay; design: key: below the threshold = too weak to quantify, mostly under pKd 3.1 to 4; settings: plain residues with an end cap or a label only (N-terminal biotin on a linker: ado-ado)
Sequence (Q86UT5 464-550): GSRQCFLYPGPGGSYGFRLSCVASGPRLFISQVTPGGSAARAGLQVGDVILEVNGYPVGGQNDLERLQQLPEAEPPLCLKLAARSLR

Row | pKd | Binder
55 | below the threshold | QRYPGNQTTC [CCL24, O00175]
56 | below the threshold | HYPASPDSWV [CTNND2, Q9UQB3]
